The values that follow come from patent publication US20230044825A1 (CZ BIOHUB SF, published 2023).

The target in this experiment is ATXN2 (UniProt Q99700 1-1313, limits assumed). Description: fluorescence microscopy, co-localization in cells.
ATXN2, sequence (Q99700 whole entry): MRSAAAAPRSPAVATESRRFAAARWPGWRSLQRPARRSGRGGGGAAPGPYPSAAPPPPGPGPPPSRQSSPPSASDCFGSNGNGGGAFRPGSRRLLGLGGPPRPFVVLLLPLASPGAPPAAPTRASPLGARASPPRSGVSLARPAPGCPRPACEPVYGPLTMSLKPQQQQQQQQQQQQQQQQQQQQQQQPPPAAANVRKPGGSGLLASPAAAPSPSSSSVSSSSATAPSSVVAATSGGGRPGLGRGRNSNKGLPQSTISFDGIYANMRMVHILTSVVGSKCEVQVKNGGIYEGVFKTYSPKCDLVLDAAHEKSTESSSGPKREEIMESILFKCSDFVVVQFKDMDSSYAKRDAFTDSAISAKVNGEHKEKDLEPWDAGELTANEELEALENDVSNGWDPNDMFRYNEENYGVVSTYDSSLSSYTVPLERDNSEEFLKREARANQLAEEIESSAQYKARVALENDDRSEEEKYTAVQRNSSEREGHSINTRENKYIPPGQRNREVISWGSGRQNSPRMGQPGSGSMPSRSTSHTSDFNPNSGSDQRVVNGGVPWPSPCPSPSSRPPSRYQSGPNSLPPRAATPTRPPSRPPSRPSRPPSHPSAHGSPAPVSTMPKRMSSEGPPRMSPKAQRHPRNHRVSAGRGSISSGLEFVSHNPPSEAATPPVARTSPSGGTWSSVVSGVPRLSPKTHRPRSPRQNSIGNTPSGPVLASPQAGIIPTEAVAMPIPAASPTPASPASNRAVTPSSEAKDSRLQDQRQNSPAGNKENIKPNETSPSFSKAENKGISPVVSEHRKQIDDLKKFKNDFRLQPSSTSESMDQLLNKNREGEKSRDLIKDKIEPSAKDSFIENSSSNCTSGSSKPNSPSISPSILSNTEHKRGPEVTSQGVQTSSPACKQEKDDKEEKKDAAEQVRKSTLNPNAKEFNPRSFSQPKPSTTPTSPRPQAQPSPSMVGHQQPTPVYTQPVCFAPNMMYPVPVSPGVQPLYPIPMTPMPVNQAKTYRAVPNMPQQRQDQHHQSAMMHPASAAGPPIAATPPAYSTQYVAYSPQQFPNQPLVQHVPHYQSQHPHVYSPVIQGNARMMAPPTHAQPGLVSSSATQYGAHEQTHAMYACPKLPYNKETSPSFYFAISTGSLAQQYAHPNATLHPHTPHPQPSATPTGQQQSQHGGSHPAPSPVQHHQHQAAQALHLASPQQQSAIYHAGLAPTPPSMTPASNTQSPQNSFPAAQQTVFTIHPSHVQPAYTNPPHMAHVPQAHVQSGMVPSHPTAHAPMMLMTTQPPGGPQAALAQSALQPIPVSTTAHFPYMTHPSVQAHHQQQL

B1: GFP-PopTag (other)
chain: GGGGSGGGGSGGGGSGGGGSEVAEQLVGVSAASAAASAFGSLSSALLMPKDGRTLEDVVRELLRPLLKEWLDQNLPRIVETKVEEEVQRISRGRGA
notes: also called GFP-PopTag condensates; not shown: GFP; constructs subcloned into pcDNA3.1+N-eGFP
Turning to B1, the binding result was “no binding”.
